Measurements taken from US9187525B2, “Methods of treating ophthalmic diseases using NPR-B agonists” (Shire Orphan Therapies GmbH, dated 2015).
Numbered stars: 1 amine (or outer) side, 2 acyl side, 3 side chain; on linkers, the order of the positions; unused ones are H or OH. Square brackets hold non-standard residues; d marks the D form. * marks the point of attachment. Ebe = (R)-2-amino-3-(methylsulfanyl)propanoic acid, CSC[C@H](N[*:1])C(=O)[*:2]; 6014 = (E)-dodec-2-enoic acid, CCCCCCCCC/C=C/C(=O)*; Pro(trans-4-F) = O=C(O)[C@@H]1C[C@@H](F)CN1; Phe(4-Br) = N[C@@H](Cc1ccc(Br)cc1)C(=O)O; Dodecenoyl(5Z) = CCCCCC/C=C\CCCC(=O)*; Hyp = O=C(O)[C@@H]1C[C@@H](O)CN1; NMeF = CN[C@@H](Cc1ccccc1)C(=O)O; tBuAla = CC(C)(C)C[C@H](N)C(=O)O; dAgb = N=C(N)NCC[C@@H](N)C(=O)O; dAgp = N=C(N)NC[C@@H](N)C(=O)O; KM‑116‑167 = not defined here; NMeL = CN[C@@H](CC(C)C)C(=O)O; NMeK = CN[C@@H](CCCCN)C(=O)O; Tle = CC(C)(C)[C@H](N)C(=O)O; Lauroyl = CCCCCCCCCCCC(=O)*; dDab = NCC[C@@H](N)C(=O)O; NMeA = CN[C@@H](C)C(=O)O; Octanoyl = CCCCCCCC(=O)*; 6054 = not defined here; Nva = CCC[C@H](N)C(=O)O; Hexanoyl = CCCCCC(=O)*; GABA = NCCCC(=O)O; Sar = CNCC(=O)O

T1: natriuretic peptide receptor-B (human)
T1 chain: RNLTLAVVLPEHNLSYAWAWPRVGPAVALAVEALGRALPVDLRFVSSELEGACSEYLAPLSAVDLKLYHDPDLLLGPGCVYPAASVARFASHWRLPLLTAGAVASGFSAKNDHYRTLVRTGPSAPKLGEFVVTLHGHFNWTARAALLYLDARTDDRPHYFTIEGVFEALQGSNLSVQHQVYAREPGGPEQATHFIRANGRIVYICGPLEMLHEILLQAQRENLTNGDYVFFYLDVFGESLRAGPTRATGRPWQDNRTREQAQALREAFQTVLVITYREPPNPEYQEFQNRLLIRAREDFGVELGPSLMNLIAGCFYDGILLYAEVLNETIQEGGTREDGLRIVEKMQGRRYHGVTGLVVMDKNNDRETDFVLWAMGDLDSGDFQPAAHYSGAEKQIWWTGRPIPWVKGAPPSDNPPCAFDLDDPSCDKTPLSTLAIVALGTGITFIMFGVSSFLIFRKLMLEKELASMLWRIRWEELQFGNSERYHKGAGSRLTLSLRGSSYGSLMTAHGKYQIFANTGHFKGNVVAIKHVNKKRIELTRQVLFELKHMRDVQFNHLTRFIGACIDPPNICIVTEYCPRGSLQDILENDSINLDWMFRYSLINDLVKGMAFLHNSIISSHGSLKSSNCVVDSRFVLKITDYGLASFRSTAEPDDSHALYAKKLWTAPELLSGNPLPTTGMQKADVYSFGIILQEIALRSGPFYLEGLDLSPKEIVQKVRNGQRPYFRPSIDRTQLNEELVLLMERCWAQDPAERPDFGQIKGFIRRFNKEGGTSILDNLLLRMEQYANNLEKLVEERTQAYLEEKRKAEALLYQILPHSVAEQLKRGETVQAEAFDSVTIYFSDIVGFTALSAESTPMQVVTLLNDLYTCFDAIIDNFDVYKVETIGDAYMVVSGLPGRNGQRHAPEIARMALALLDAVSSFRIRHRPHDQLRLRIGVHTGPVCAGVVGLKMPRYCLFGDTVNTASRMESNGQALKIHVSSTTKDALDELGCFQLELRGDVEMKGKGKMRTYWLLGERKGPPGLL

B1: JAL-1225 (peptide)
peptide: Octanoyl-AFRL[Hyp][tBuAla]DRI-NH2
modifications: not fully specified (some residues); printed as Occ-ala-Phe-arg-Leu-Hyp-Npg-Asp-Arg-Ile-NH2
B2: JAL-0540 (peptide)
peptide: XXAFGLKLDRIS
modifications: Hex-Ebe-ala-Phe-Gly-Leu-Lys-Leu-Asp-Arg-Ile-Ser-NH2
B3: JAL-1228 (peptide)
peptide: Octanoyl-AFRLK[NMeL]DRI-NH2
modifications: not fully specified (some residues); printed as Occ-ala-Phe-arg-Leu-Lys-Nml-Asp-Arg-Ile-NH2
B4: JAL-1238 (peptide)
peptide: {Dodecenoyl(5Z)}-FRL[Hyp][NMeL]DRI-NH2
modifications: not fully specified (some residues); printed as 6015-Phe-arg-Leu-Hyp-Nml-Asp-Arg-Ile-NH2
B5: JAL-1239 (peptide)
peptide: 6054-FRL[Hyp][NMeL]DRI-NH2
modifications: not fully specified (some residues); printed as 6054-Phe-arg-Leu-Hyp-Nml-Asp-Arg-Ile-NH2; reading uncertain
B6: JAL-1233 (peptide)
peptide: Octanoyl-AFR[Ebe][Hyp][NMeL]DRI-NH2
modifications: not fully specified (some residues); printed as Occ-ala-Phe-arg-Ebe-Hyp-Nml-Asp-Arg-Ile-NH2
B7: JAL-1120 (peptide)
peptide: Octanoyl-[dA]F[dDab]LPLDRI-NH2
B8: JAL-1078 (peptide)
peptide: Octanoyl-XF[dR]LP[NMeL]DRI-NH2
modifications: not fully specified (some residues); printed as Occ-pip-Phe-arg-Leu-Pro-Nml-Asp-Arg-Ile-NH2
B9: JAL-1231 (peptide)
peptide: Octanoyl-AFRL[Sar][NMeL]DRI-NH2
modifications: not fully specified (some residues); printed as Occ-ala-Phe-arg-Leu-Sar-Nml-Asp-Arg-Ile-NH2
B10: JAL-1159 (peptide)
peptide: Octanoyl-AFR[KM‑116‑167][NMeL]DRI-NH2
modifications: not fully specified (some residues); printed as Occ-ala-Phe-arg-(KM-116-167)-Nml-Asp-Arg-Ile-NH2; reading uncertain
B11: JAL-1086 (peptide)
peptide: Octanoyl-[dA]F[dR]L[Hyp][NMeL]DRI-NH2
B12: JAL-1224 (peptide)
peptide: Octanoyl-AFRL[Hyp]IDRI-NH2
modifications: not fully specified (some residues); printed as Occ-ala-Phe-arg-Leu-Hyp-Ile-Asp-Arg-Ile-NH2
B13: JAL-1214 (peptide)
peptide: Lauroyl-FRL[Hyp][NMeL]DRI-NH2
modifications: not fully specified (some residues); printed as 832-Phe-arg-Leu-Hyp-Nml-Asp-Arg-Ile-NH2
B14: JAL-1077 (peptide)
peptide: Octanoyl-X[NMeF][dR]LP[NMeL]DRI-NH2
modifications: not fully specified (some residues); printed as Occ-pip-Nmf-arg-Leu-Pro-Nml-Asp-Arg-Ile-NH2
B15: JAL-1115 (peptide)
peptide: Octanoyl-[dA]FGL[Pro(trans-4-F)]LDRI-NH2
B16: JAL-1114 (peptide)
peptide: Octanoyl-[dA]F[dR]L[Pro(trans-4-F)]LDRI-NH2
B17: JAL-1227 (peptide)
peptide: Octanoyl-AFRL[Hyp][Ebe]DRI-NH2
modifications: not fully specified (some residues); printed as Occ-ala-Phe-arg-Leu-Hyp-Ebe-Asp-Arg-Ile-NH2
B18: JAL-0541 (peptide)
peptide: Hexanoyl-[Ebe][dA]FGLKLDRI-NH2
B19: JAL-1226 (peptide)
peptide: Octanoyl-AFRL[Hyp][Tle]DRI-NH2
modifications: not fully specified (some residues); printed as Occ-ala-Phe-arg-Leu-Hyp-Tbg-Asp-Arg-Ile-NH2
B20: JAL-1122 (peptide)
peptide: Octanoyl-[dA]F[dAgp]LPLDRI-NH2
B21: JAL-1116 (peptide)
peptide: Octanoyl-[dA][Phe(4-Br)][dR]L[Hyp]LDRI-NH2
B22: JAL-1229 (peptide)
peptide: Octanoyl-AFRL[NMeK][NMeL]DRI-NH2
modifications: not fully specified (some residues); printed as Occ-ala-Phe-arg-Leu-Nmk-Nml-Asp-Arg-Ile-NH2
B23: JAL-1157_02 (peptide)
peptide: Octanoyl-XF[dR]L[Hyp]LDRI-NH2
modifications: not fully specified (some residues); printed as Oct-pip-Phe-arg-Leu-Hyp-Leu-Asp-Arg-Ile-NH2
B24: JAL-1121 (peptide)
peptide: Octanoyl-[dA]F[dAgb]LPLDRI-NH2
B25: JAL-1237 (peptide)
peptide: 6014-FRL[Hyp][NMeL]DRI-NH2
modifications: not fully specified (some residues); printed as 6014-Phe-arg-Leu-Hyp-Nml-Asp-Arg-Ile-NH2
B26: JAL-1085 (peptide)
peptide: Octanoyl-[dA][NMeF][dR]L[Hyp][NMeL]DRI-NH2
B27: JAL-1232 (peptide)
peptide: Octanoyl-AFR[Nva][Hyp][NMeL]DRI-NH2
modifications: not fully specified (some residues); printed as Occ-ala-Phe-arg-Nva-Hyp-Nml-Asp-Arg-Ile-NH2
B28: JAL-1087 (peptide)
peptide: Octanoyl-XF[dR]L[Hyp][NMeL]DRI-NH2
modifications: not fully specified (some residues); printed as Occ-pip-Phe-arg-Leu-Hyp-Nml-Asp-Arg-Ile-NH2
B29: JAL-1156_02 (peptide)
peptide: Octanoyl-[dA]F[dR]L[Hyp]LDRI-NH2
B30: JAL-1230 (peptide)
peptide: Octanoyl-AFRL[NMeA][NMeL]DRI-NH2
modifications: not fully specified (some residues); printed as Occ-ala-Phe-arg-Leu-Nma-Nml-Asp-Arg-Ile-NH2
B31: JAL-0542 (peptide)
peptide: Hexanoyl-[GABA]FGLKLDRIS[Ebe]-NH2
SMILES: CCCCCC(=O)NCCCC(=O)N[C@@H](Cc1ccccc1)C(=O)NCC(=O)N[C@@H](CC(C)C)C(=O)N[C@@H](CCCCN)C(=O)N[C@@H](CC(C)C)C(=O)N[C@@H](CC(=O)O)C(=O)N[C@@H](CCCNC(=N)N)C(=O)N[C@H](C(=O)N[C@@H](CO)C(=O)N[C@@H](CSC)C(N)=O)[C@@H](C)CC

Molecular target: T1, natriuretic peptide receptor-B
Assay: cell-based or functional assay

| Binder | EC50 group, cGMP in GTM-3 cells |
| --- | --- |
| B1 | ≤ 1 µM |
| B2 | ≤ 15 µM |
| B3 | ≤ 5 µM |
| B4 | ≤ 5 µM |
| B5 | ≤ 5 µM |
| B6 | ≤ 5 µM |
| B7 | ≤ 5 µM |
| B8 | ≤ 1 µM |
| B9 | ≤ 5 µM |
| B10 | ≤ 15 µM |
| B11 | ≤ 1 µM |
| B12 | ≤ 5 µM |
| B13 | ≤ 5 µM |
| B14 | ≤ 1 µM |
| B15 | ≤ 5 µM |
| B16 | ≤ 5 µM |

| Binder | EC50 group, cGMP in GTM-3 cells |
| --- | --- |
| B17 | ≤ 5 µM |
| B18 | ≤ 15 µM |
| B19 | ≤ 15 µM |
| B20 | ≤ 5 µM |
| B21 | ≤ 1 µM |
| B22 | ≤ 5 µM |
| B23 | ≤ 15 µM |
| B24 | ≤ 5 µM |
| B25 | ≤ 5 µM |
| B26 | ≤ 1 µM |
| B27 | ≤ 5 µM |
| B28 | ≤ 1 µM |
| B29 | ≤ 5 µM |
| B30 | ≤ 15 µM |
| B31 | ≤ 15 µM |
